Patent US20110293610A1 (published 2011)

Biological target: T1, HIS-tagged B Lymphocyte Stimulator (human, UniProt Q9Y275 71-285)
T1 construct: Expressed in E. coli; also called HIS-B Lymphocyte Stimulator; histidine-tagged B Lymphocyte Stimulator; not shown: histidine tag from the pQE9 vector
Experiment: BIAcore, periplasmic scFv over high density HIS-BLyS surface
Experimental: All BIAcore analysis was performed on BIAcore 2000 machines, using the BIAcore 2000 control software and evaluated using the BIAevaluation 3.0 software. A high density His-tagged B Lymphocyte Stimulator surface (>1000 RU HIS-B Lymphocyte Stimulator coupled) was prepared in flow cell 2 by amine coupling to a CM5 chip. A new CM5 chip was inserted into the BIAcore and a sensorgram started over flow cell 2 with HBS buffer at a flow rate of 5 μl/min. The NHS and EDC solution were mixed 1:1 before injecting 30 μl over the CM5 surface. Fifty μl HIS-B Lymphocyte Stimulator (at 10 μg/ml in Sodium acetate buffer, pH4) was injected and allowed to couple to the surface. Thirty μl of ethanolamine-HCl solution was then injected to block free NHS esters. Prior to using the chip, 10 μl of 4M Guanidine hydrochloride in HBS was injected over the surface to strip the surface of non-covalently bound B Lymphocyte Stimulator. A blank surface (no HIS-B Lymphocyte Stimulator) was also prepared over flow cell 1 so that non-specific binding effects can be subtracted from the HIS-B Lymphocyte Stimulator binding curves.
The 96-well plate containing periplasmic scFvs was secured inside the BIAcore. Two ml of 4M Guanidine hydrochloride in HBS was placed in a rack inside the BIAcore for regeneration of the HIS-B Lymphocyte Stimulator surface between samples. The sensorgram was run over flow cells 1 and 2 at a flow rate of […].

Row | Binder | binding result
1 | I079F08 (scFv) scFv: QMQLVQSGGGVVQPGRSLRLSCAASGFTFSSYGMHWVRQAPGKGLEWVAVISYDGSIKYYADSVKGRFTISRDNSKNTLYLQMNSLRAEDTAVYYCARYYYHSSGSDAFDIWGQGTLVTVPSGGGGSGGGGSGGGGSQSVLTQPPSASGTPGQRVTISCSGSSSNIGSNTVNWYQRLPGAAPQLLIYNNNQRPSGVPDRFSGSKSGTSASLAISGLQSEDEADYYCAAWDDSLNGWVFGGGTKLTVLG | binds
2 | I079C01 (scFv) scFv: EVQLVESGGGLVQPGGSLRLSCAASGFTFSDYGMHWVRQRPGKGLEWIAFIGSDGSNKYYGDTVKGRFTISRDNAKNSLYLQMNSLRAEGTAVYYCARDWDMDVWGQGTMVTVSSGGGGSGGGGSGGGGSHVILTQPRSVSGSPGQSVTISCTGTSSDVGGYHYVSWYQQHPGKAPRLMIYEVTKRPSGVSNRFSGSKSGNTASLTISGVQAEDEADYYCSSYTSASTVIFGGGTKLTVLG | binds
3 | I079B05 (scFv) scFv: GVQLVESGGGLVKPGGSLRLSCATSGFRFSDYAMTWVRQAPGKGLEWVSSITGSGGGTHYAGSVRGRFTISRDNSKNTVYLQMNNLRPEDTAVYYCASFVLDYWGKGTLVTVSSGGGGSGGGGSGGGGSQSVLTQPASVSGSPGQSITISCTGTSSDVGGYNYVSWYQQHPGKAPKLMIYEGSKRPSGVSNRFSGSKSGNTASLTISGLQAEDEADYYCSSYTTRSTRVFGGGTKLTVLG | binds
4 | I080B01 (scFv) scFv: QVQLVQSGAEVKKPGASVKVSCKASGYTFTNYYMHWVRQAPGQGLEWMGIINPRDVSTTYAQKFQGRATMTRDTSTSTVYMELNSLRSEDTAVYYCAREYSGYHYVEGGSYAMDVWGQGTMVTVSSGGGGSGGGGSGGGGSALSYVLTQPPSASGTPGQRVTITCSGSSSNIGNYYVNWYQQVSGTAPKLIIYRNNQRPSGVPDRFSGSKSGASASLAISGLRSEDEADYFCAAWDDSLREFVFGTGTKVTVLG | binds
5 | I082G01 (scFv) scFv: QMQLVQSGAEVKKPGASVKVSCKASGYTFTSYYMHWVRQAPGQGLEWMGLVHPNDGSVNYAQKFKGRVTMTRDTSTSTVYMELSSLRSDDTAVYYCARDRGSGWPNWYFDLWGQGTLVTVSSGGGGSGGGGSGGGGSDIQMTQSPSTLSASIGDRVTITCRASEGIYHWLAWYQQKPGKAPKLLIYKASSLASGAPSRFSGSGSGTDFTLTISSLQPDDFATYYCQQYSNYPLTFGGGTKLEIKH | binds
6 | I079F06 (scFv) scFv: QVQLVESGGGLVQPGGSLRLSCAASGFTFSSYWMSWVRQAPGKGLEWVANIKQDGSEKYYVDSVKGRFTISRDNAKNSLYLQMNSLRAEDTAVYYCARDNLHAAFDIWGRGTLVTVSGGGGGSGGGGSGGGGSDIQMTQSPSTLSASIGDRVTITCRASEGIYHWLAWYQQKPGKAPKLLIYKASSLASGAPSRFSGSGSGTDFTLTISSLQPDDFATYYCQQYSNYPLTFGGGTKLEIKR | binds
7 | I079B12 (scFv) scFv: EVQLVQSRGGVVQPGRSLRLSCAASGLTFSSYGMHWVRQAPGKGLEWVAVISYDGRNKYYADSVKGRFTTSRDNSKNTLYLQMNSLRAEDTAVYYCAKWTSSGAFDIWGRGTLVTVSSGGGGSGGGGSGGGGSDIQMTQSPSTLSASIGDRVTITCRASEGIYHWLAWYQQKPGKAPKLLIYKASSLASGAPSRFSGSGSGTDFTLTISSLQPDDFATYYCHQYSNYPLTFGGGTKLEIKR | binds
8 | I084C04 (scFv) scFv: VQLVQSGAEVKKPGASVKVSCKASGYTFTSYGISWVRQAPGQGLEWMGWINPNSGGTNYAQKFQGRVTMTRDTSISTAYMELSRLRSDDTAVYYCARNLWGLDYWGKGTMVTVSSGGGGSGGGGSGGGGSSELTQDPAVSVALGQTVRITCQGDSLRSYYASWYQQKPGQAPVLVIYGKNNRPSGIPDRFSGSSSGNTASLTITGAQAEDEADYYCNSRDSSGNHVVFGGGTKLTVLG | binds

More lines, now with the values ahead:

Row | binding result | Binder
9 | binds | I083B12 (scFv) scFv: QVQLVQSGAEVKKPGASVKVSCKASEYTFYNHYMHWVRQAPGQGLEWMGFINPSGDAAWYAQKFQGRVTLTRDTSTRTVYMELSGLTSEDTAVYYCARESGAGGYYYDDYWGKGTLVTVSSGGGGSGGGGSGGGGSALSYVLTQPPSVSVAPGKTASIPCGGNNIGSKSVQWYLQKAGQAPILVVYDDSDRPSGIPERFSGSNSGNTATLTITRVEAGDEADYYCQVWDSSSDHWFFGGGTKLTVLG
10 | binds | I082A05 (scFv) scFv: QVQLQQSGGGVVQPGRSLRLSCAASGFTYSSYAMHWVRQAPGKGLEWVAVISYDGSIKYYADSVKGRFTISRDNSKNTLYLQMNSLRAEDTAVYYCARDLDFDYWGKGTLVTVSSGGGGSGGGGSGGGGSQSVLTQPPSVSAAPGQKVTISCSGSTSNIGNNYVSWYQQHPGKAPKFMIYDVSKRPSGVSNRFSGSKSGNTASLTISGVQAEDEADYYCSSYTSASTVIFGGGTKLTVLG
11 | binds | I080E05 (scFv) scFv: EVQLVQSGAAVKKPGASVKVSCKASGYTFTTYYIHWVRQAPGQGLEWMGIINPVNGNTIYAQKFQGRVTMTRDTSTGTVNMELSSLRSEDTAVFYCVREGGGDAYDVAPYYFDYWGQGTLVTVSSGGGGSGGGGSGGGGSAQAVLTQPSSVSGAPGQRVTISCTGSSSNIGDGYDVHWYQQLPGTAPKLLIYGNSHRPSGVPDRFSGSKSDTSASLAITGLQVEDEADYFCHSYDSSVSGWIFGGGTKLTVLG
12 | binds | I082D07 (scFv) scFv: EVQLVQSRGGVVQPGRSLRLSCAASGLTFSSYGMHWVRQAPGKGLEWVAVISYDGRNKYYADSVKGRFTTSRDNSKNTLYLQMNSLRAEDTAVYYCAKWTSSGAFDIWGRGTLVTVSSGGGGSGGGGSGGGGSDIQMTQSPSTLSASIGDRVTITCRASEGIYHWLAWYQQKPGKAPKLLIYKASSLASGAPSRFSGSGSGTDFTLTISSLQPDDFATYYCQQYSNYPLTFGGGTKLEIKR

Biological target: T2, biotinylated B Lymphocyte Stimulator, soluble form (human, UniProt Q9Y275 134-285, biotinylated with NHS-biotin, molar ratio 20:1 biotin:protein)
T2 construct: also called bio-B Lymphocyte Stimulator; free B Lymphocyte Stimulator
Experiment: phage scFv, receptor binding inhibition on IM9 cells
Experimental: All of the unique phage scFvs from panel 2 were assessed for their ability to inhibit B Lymphocyte Stimulator binding to its cognate receptor on IM9 cells. The biotinylation of B Lymphocyte Stimulator, maintenance of IM9 cells and receptor binding inhibition assay were performed as described in Example 3.

Row | Binder | binding result
13 | I065F08 (scFv) scFv: QVQLQQSGAEVKKPGSSVKVSCKASGDTFSSFGISWVRQVPGQGLEWMGAIIPKFDIVTYAEEFKGRVTISADKLTNTAYMEVKSLRSEDTAVYYCTREKSAAGYFDYWGKGTLVTVSSGGGGSGGGGSGGGGSDIVMTQSPSTLSASVGDRVTITCRASQGISSWLAWYQQKPGRAPKVLIYKASTLESGVPSRFSGSGSGTDFTLTISSLQPEDFATYYCQQSYSTPWTFGQGTKLEIKR | binds
14 | I064C04 (scFv) scFv: QVQLVQSGAEVKKPGASVKVSCEASGYTFTSYGISWVRQAPGQGLEWMGWISTYNGNTRYPQKLQGRVTMTTDTSTSTAYMDLRSLRSDDTAVYYCARDGRLSYDILTGYYARDYYGMDDWGRGTMVTVSSGGGGSGGGGSGGGGSQSVLTQPASVSGSPGQSITISCTGTSSDVGGYNYVSWYQQHPGKAPKLMIYEGSKRPSGVSNRFSGSKSGNTASLTISGLQAEDEADYYCSSYTTRSTRVFGGGTKLTVLG | binds

Second part, the binder after the results:

Row | binding result | Binder
15 | binds | I067B10 (scFv) scFv: QMQLVQSGAEVKKPGASVKVSCKASGYTFTSYYMHWVRQAPGQGLEWMGWINAGNSNTKYSQKFQGRVTITSDTSASTAYMELSGLRSEDTAVYYCARDRGAPNYDILTGYYAPAQGVAFDIWGKGTLATVSSGGGGSGGGGSGGGGSQSVLTQPPSVSAAPGQKVTISCSGSTSNIGNNYVSWYQQHPGKAPKLMIYDVSKRPSGVPDRFSGSKSGNSASLDISGLQSEDEADYYCAAWDDSLSEFLFGTGTKLTVLG
16 | binds | I064C07 (scFv) scFv: QVQLVQSGAEVKKPGSSVKVSCKASGGTFSSYAISWVRQAPGQGLEWMGGIIPIFGTANYAQKFQGRVTITADDLTRTAYMEMSSLKFEDTAVYYCASSEGTIFGVDWGRGTLVTVSSGGGGSGGGGSGGGGSDIQMTQSPSFLSASVGDRVTITCRASQGINNYLAWYQQKPGRAPKLLMYAASSLQSGVPSRFSGSGSGTDFTLTISSLQPEDFATYYCLQDSDYPLTFGGGTKLEIKR
17 | binds | I067F05 (scFv) scFv: QVQLQQSGAEVKKPGSSVKVSCKASGGTFSSYAISWVRQAPGQGLEWMGRIIPIVNMANYAQKFQGRVTLTADKSTGTAYMELTSLRSEDTAVYYCARENYDSLTGYYGAFDIWGKGTMVTVSSGGGGSGGGGSGGGGSQSVLTQPASVSGSPGQSITISCTGTSSDVGGYNYVSWYQQHPGKAPKLMIYEGSKRPSGVSNRFSGSKSGNTASLTISGLQAEDEADYYCSSYTTRSTRVFGGGTKLTVLG
18 | binds | I026C04-R (scFv) scFv: QVQLVQSGAEVKKPGSSVKVSCRASGGSFNRHAISWVRQAPGRGLEWMGGILPMYGTANYAQKFQGRVTITADKLTNTVYMDLSRLRYEDTAVYYCARELGLSIVGATTGALDMWGKGTLVTVSSGGGGSGGGGSGGGGSAQSVLTQPPSVSAAPGQKVTISCSGSSSNIGNNYVSWYQQIPGTAPKLLIYENNKRPSGIPDRFSGSKSGASATLDITGLQTGDEADYYCGTWHSSQVVFGGGTKLTVLG
